# Measured values published in patent publication US6491908.
# Read-outs that look alike come from different tables or passages of the source.
# Tests used:
# Test in all cases: cell-based or functional assay
# [1] = target: CD3 portion of the T cell receptor on Jurkat cells (human) (UniProt P07766)
# [2] = target: CD3 portion of the T cell receptor on Jurkat cells (human) (UniProt P07766); remark: listed apart in the source
# [3] = target: mouse class I MHC D^d (full length, without signaling molecule) (mouse) (UniProt P01900)
# [4] = target: D^d/zeta chimera (mouse class I MHC D^d fused to the murine T cell receptor zeta chain) (mouse) (UniProt P24161)
# [5] = target: mouse class I MHC D^d (full length, without signaling molecule) (mouse) (UniProt P01900); remark: listed apart in the source
# [6] = target: D^d/zeta chimera (mouse class I MHC D^d fused to the murine T cell receptor zeta chain) (mouse) (UniProt P24161); remark: listed apart in the source
# mouse class I MHC D^d (full length, without signaling molecule) (mouse), sequence (P01900 25-365): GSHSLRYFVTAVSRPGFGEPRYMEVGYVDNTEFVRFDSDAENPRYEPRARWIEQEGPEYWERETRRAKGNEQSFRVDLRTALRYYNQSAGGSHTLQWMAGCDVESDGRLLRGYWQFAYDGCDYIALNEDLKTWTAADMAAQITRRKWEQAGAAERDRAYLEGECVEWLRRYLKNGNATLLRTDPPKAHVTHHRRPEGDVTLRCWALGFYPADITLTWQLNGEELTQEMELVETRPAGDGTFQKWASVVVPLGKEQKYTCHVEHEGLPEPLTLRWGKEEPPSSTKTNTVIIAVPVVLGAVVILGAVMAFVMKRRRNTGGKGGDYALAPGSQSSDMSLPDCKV
# CD3 portion of the T cell receptor on Jurkat cells (human), sequence (P07766 23-207): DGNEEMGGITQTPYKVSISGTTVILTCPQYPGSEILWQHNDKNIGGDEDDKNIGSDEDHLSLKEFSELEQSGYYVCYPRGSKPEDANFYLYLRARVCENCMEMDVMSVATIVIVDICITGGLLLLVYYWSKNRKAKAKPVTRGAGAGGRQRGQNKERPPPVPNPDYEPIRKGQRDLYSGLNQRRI
Substance,"Proliferation (CPM) of CTLL-2 cells (IL-2 in supernatant of #19 (D^d) Jurkat cells), with PMA [1]","Proliferation (CPM) of CTLL-2 cells (IL-2 in supernatant of #19 (D^d) Jurkat cells), without PMA [1]","Proliferation (CPM) of CTLL-2 cells (IL-2 in supernatant of untransfected Jurkat cells), with PMA [2]","Proliferation (CPM) of CTLL-2 cells (IL-2 in supernatant of untransfected Jurkat cells), without PMA [2]","Proliferation (CPM) of CTLL-2 cells (IL-2 in supernatant of #19 (D^d) Jurkat cells), with PMA [3]","Proliferation (CPM) of CTLL-2 cells (IL-2 in supernatant of #19 (D^d) Jurkat cells), without PMA [3]","Proliferation (CPM) of CTLL-2 cells (IL-2 in supernatant of J11-6 (D^d/zeta) Jurkat cells), with PMA [4]","Proliferation (CPM) of CTLL-2 cells (IL-2 in supernatant of J11-6 (D^d/zeta) Jurkat cells), without PMA [4]","cellular proliferation ([3H]TdR) of spleen lymphoid cells of pD^d1 (D^d) transgenic mice, anti-D^d + anti-CD8 + anti-CD3 mAbs together [5]","cellular proliferation ([3H]TdR) of spleen lymphoid cells of pD^d1 (D^d) transgenic mice, anti-D^d + anti-CD8 mAbs together [5]","cellular proliferation ([3H]TdR) of spleen lymphoid cells of pD^d1 (D^d) transgenic mice, anti-D^d mAb alone [5]","Proliferation (CPM) of CTLL-2 cells (IL-2 in supernatant of J11-6 (D^d/zeta) Jurkat cells), with PMA [6]","Proliferation (CPM) of CTLL-2 cells (IL-2 in supernatant of J11-6 (D^d/zeta) Jurkat cells), without PMA [6]","cellular proliferation ([3H]TdR) of spleen lymphoid cells of D^d/zeta transgenic mice, anti-D^d + anti-CD8 + anti-CD3 mAbs together [6]","cellular proliferation ([3H]TdR) of spleen lymphoid cells of D^d/zeta transgenic mice, anti-D^d + anti-CD8 mAbs together [6]","cellular proliferation ([3H]TdR) of spleen lymphoid cells of D^d/zeta transgenic mice, anti-D^d mAb alone [6]",fold enhancement of proliferation over the D^d alone expressing cells [6]
"OKT3, an anti-CD3 antibody",10900 CPM,9530 CPM,2200 CPM,1180 CPM,,,,,,,,,,,,,
anti-D^d monoclonal antibody (34-2-12),,,,,5520 CPM,492 CPM,16700 CPM,361 CPM,25000,1240,897,26800 CPM,338 CPM,253000,242000,303000,10 to 300 fold
